This passage reports Kd and fold Kd increase vs wild type (fold Kd increase vs wt) results from paper PMC12221289.

Test in all cases: DRaCALA
The test system of data set [1] is Rcu mt-EF-Tu1 (Romanomermis culicivorax). The note with it: 3'-aminoacylated with Phe (flexizyme); DRaCALA of EF-Tu:GTP:Phe-tRNA ternary complexes, 2 ul spotted on nitrocellulose, n>=3; binding buffer, pH and temperature not in the material.
The test system of data set [2] is Rcu mt-EF-Tu1 ΔC15 (Romanomermis culicivorax). Conditions: GTP; apparent Kd; 3'-aminoacylated with Phe (flexizyme); DRaCALA of EF-Tu:GTP:Phe-tRNA ternary complexes, 2 ul spotted on nitrocellulose, n>=3; binding buffer, pH and temperature not in the material.
For data set [3], the target named is Bta mt-EF-Tu D384K D384K (Bos taurus) (UniProt P49410). Conditions: 3'-aminoacylated with Phe (flexizyme); DRaCALA of EF-Tu:GTP:Phe-tRNA ternary complexes, 2 ul spotted on nitrocellulose, n>=3; binding buffer, pH and temperature not in the material.
In data set [4] the target is Bta mt-EF-Tu D384A D384A (Bos taurus) (UniProt P49410). The note with it: 3'-aminoacylated with Phe (flexizyme); DRaCALA of EF-Tu:GTP:Phe-tRNA ternary complexes, 2 ul spotted on nitrocellulose, n>=3; binding buffer, pH and temperature not in the material.
Data set [5] has as its system Tbr mt-EF-Tu1 S381D (Trichinella britovi). The note with it: 3'-aminoacylated with Phe (flexizyme); DRaCALA of EF-Tu:GTP:Phe-tRNA ternary complexes, 2 ul spotted on nitrocellulose, n>=3; binding buffer, pH and temperature not in the material.
In data set [6] the test system is Cel mt-EF-Tu1 (Caenorhabditis elegans). The note with it: 3'-aminoacylated with Phe (flexizyme); DRaCALA of EF-Tu:GTP:Phe-tRNA ternary complexes, 2 ul spotted on nitrocellulose, n>=3; binding buffer, pH and temperature not in the material.
Data set [7] relates to Rcu mt-EF-Tu1 K380R (Romanomermis culicivorax). The note with it: 3'-aminoacylated with Phe (flexizyme); DRaCALA of EF-Tu:GTP:Phe-tRNA ternary complexes, 2 ul spotted on nitrocellulose, n>=3; binding buffer, pH and temperature not in the material.
The test system of data set [8] is Rcu mt-EF-Tu1 K380A (Romanomermis culicivorax). Conditions: 3'-aminoacylated with Phe (flexizyme); DRaCALA of EF-Tu:GTP:Phe-tRNA ternary complexes, 2 ul spotted on nitrocellulose, n>=3; binding buffer, pH and temperature not in the material.
Data set [9] deals with Rcu mt-EF-Tu1 ΔC50 (Romanomermis culicivorax). Conditions: 3'-aminoacylated with Phe (flexizyme); DRaCALA of EF-Tu:GTP:Phe-tRNA ternary complexes, 2 ul spotted on nitrocellulose, n>=3; binding buffer, pH and temperature not in the material.
For data set [10], the system named is Tbr mt-EF-Tu1 S381K (Trichinella britovi). The note with it: 3'-aminoacylated with Phe (flexizyme); DRaCALA of EF-Tu:GTP:Phe-tRNA ternary complexes, 2 ul spotted on nitrocellulose, n>=3; binding buffer, pH and temperature not in the material.
The subject of data set [11] is Rcu mt-EF-Tu1 region F chimera (Romanomermis culicivorax). Conditions: 3'-aminoacylated with Phe (flexizyme); DRaCALA of EF-Tu:GTP:Phe-tRNA ternary complexes, 2 ul spotted on nitrocellulose, n>=3; binding buffer, pH and temperature not in the material.
Data set [12] relates to Rcu mt-EF-Tu1 ΔC18 (Romanomermis culicivorax). The note with it: 3'-aminoacylated with Phe (flexizyme); DRaCALA of EF-Tu:GTP:Phe-tRNA ternary complexes, 2 ul spotted on nitrocellulose, n>=3; binding buffer, pH and temperature not in the material.
Data set [13] deals with Tbr mt-EF-Tu1 (Trichinella britovi). Conditions: 3'-aminoacylated with Phe (flexizyme); DRaCALA of EF-Tu:GTP:Phe-tRNA ternary complexes, 2 ul spotted on nitrocellulose, n>=3; binding buffer, pH and temperature not in the material.
The subject of data set [14] is Cel mt-EF-Tu1 K386D (Caenorhabditis elegans). Conditions: 3'-aminoacylated with Phe (flexizyme); DRaCALA of EF-Tu:GTP:Phe-tRNA ternary complexes, 2 ul spotted on nitrocellulose, n>=3; binding buffer, pH and temperature not in the material.
In data set [15] the test system is Rcu mt-EF-Tu1 ΔC3 (Romanomermis culicivorax). Conditions: 3'-aminoacylated with Phe (flexizyme); DRaCALA of EF-Tu:GTP:Phe-tRNA ternary complexes, 2 ul spotted on nitrocellulose, n>=3; binding buffer, pH and temperature not in the material.
Data set [16] relates to Rcu mt-EF-Tu1 K380E (Romanomermis culicivorax). The note with it: 3'-aminoacylated with Phe (flexizyme); DRaCALA of EF-Tu:GTP:Phe-tRNA ternary complexes, 2 ul spotted on nitrocellulose, n>=3; binding buffer, pH and temperature not in the material.
The test system of data set [17] is Rcu mt-EF-Tu1 K380D/ΔC50 (Romanomermis culicivorax). The note with it: GTP; apparent Kd; 3'-aminoacylated with Phe (flexizyme); DRaCALA of EF-Tu:GTP:Phe-tRNA ternary complexes, 2 ul spotted on nitrocellulose, n>=3; binding buffer, pH and temperature not in the material.
Data set [18] concerns Rcu mt-EF-Tu1 K380D (Romanomermis culicivorax). The note with it: 3'-aminoacylated with Phe (flexizyme); DRaCALA of EF-Tu:GTP:Phe-tRNA ternary complexes, 2 ul spotted on nitrocellulose, n>=3; binding buffer, pH and temperature not in the material.

Consider “AGUCAAAUAGCUUAACCUUAAAGCACAAAUCUUUUAAAUUUGAAGAUGUAUCCACUUUGACUACCA [Phe-mt-tRNALys (T-armless)]”, for which the Kd in data set [1] amounted to 5.2 nM.
Take Phe-mt-tRNASer(UCU) (D-armless): the Kd in [1] was 66.4 nM.
As to “GCGGAUUUAGCUCAGUUGGGAGAGCGCCAGACUGAAGAUCUGGAGGUCCUGUGUUCGAUCCACAGAAUUCGCACCA [Phe-tRNAPhe (canonical)]”, the Kd in [1] was 22.6 nM.
On to Phe-mt-tRNAIle (armless), for which the Kd turned out to be 40.7 nM in data set [2]; 5.8 nM in data set [1]; 96.8 nM in [3]; 60.1 nM in data set [4]; 7.1 nM in data set [5]; 17.1 nM in data set [6]. For the same substance, the Kd in [7] was 16.5 nM; in data set [8] it was 33.4 nM; in data set [10], 3 nM; in data set [11] it was 222 nM; in data set [13] it was 4.4 nM; in data set [14] it was 62.6 nM. The Kd in data set [16] was determined as 150 nM; in data set [17] it was 350 nM; in data set [18] it was 70.4 nM. For the same substance, the results for the fold Kd increase vs wild type (fold Kd increase vs wt) in data set [9], in [12] and in data set [15] were 14, 8.7 and 1.5, respectively.
